Assay results: patent publication CN113637078A (WEST CHINA HOSPITAL SICHUAN UNIV, dated 2021)

Columns and labels:
[1] = target: T1, p38γ with 2×Strep tag (pET28a-p38γ-2×Strep) (Homo sapiens (Human), UniProt P53778 1-367); assay: ELISA, antigen coated on plate, periplasmic extract of the nanobody, anti-FLAG detection, OD450
T1 construct: Recombinant, from E. coli BL21(DE3); The tag is placed at the C-terminus only on the strength of the vector name; not shown: 2×Strep tag
T1 sequence: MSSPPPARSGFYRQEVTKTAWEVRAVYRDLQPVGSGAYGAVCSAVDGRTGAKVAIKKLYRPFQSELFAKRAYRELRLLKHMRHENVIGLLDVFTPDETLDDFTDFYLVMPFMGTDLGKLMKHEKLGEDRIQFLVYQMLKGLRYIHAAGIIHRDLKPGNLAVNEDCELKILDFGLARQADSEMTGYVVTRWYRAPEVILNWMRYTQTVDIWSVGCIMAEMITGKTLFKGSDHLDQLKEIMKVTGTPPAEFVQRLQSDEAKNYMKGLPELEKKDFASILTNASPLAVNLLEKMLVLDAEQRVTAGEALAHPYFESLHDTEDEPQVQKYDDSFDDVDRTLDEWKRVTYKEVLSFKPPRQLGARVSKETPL

p38α = p38α (UniProt Q16539 1-360, limits assumed); assay: as above
p38β = p38β (UniProt Q15759 1-364, limits assumed); assay: as above
[2] = target: T2, 蛋白激酶p38δ with 2×Strep tag (pET28a-p38δ-2×Strep) (Homo sapiens (Human), UniProt O15264 1-365); assay: indirect ELISA, p38δ coated, nanobody at 0-6.4 μM, anti-FLAG detection, 4-parameter fit
T2 construct: Recombinant, from E. coli BL21(DE3); The tag is placed at the C-terminus only on the strength of the vector name pET28a-p38γ/p38δ-2×Strep; Linkers and other vector residues are not described; not shown: 2×Strep tag
T2 sequence: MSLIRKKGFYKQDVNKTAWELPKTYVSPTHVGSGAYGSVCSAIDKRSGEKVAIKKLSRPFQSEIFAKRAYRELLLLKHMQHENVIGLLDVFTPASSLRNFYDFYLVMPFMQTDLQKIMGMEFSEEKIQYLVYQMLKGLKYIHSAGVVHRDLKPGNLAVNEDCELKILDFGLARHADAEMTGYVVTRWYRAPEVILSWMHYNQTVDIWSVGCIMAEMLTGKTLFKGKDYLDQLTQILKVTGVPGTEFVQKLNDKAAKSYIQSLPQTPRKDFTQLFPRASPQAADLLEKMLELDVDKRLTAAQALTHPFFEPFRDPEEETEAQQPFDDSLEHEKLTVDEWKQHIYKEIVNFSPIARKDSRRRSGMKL

Chain of p38α (Q16539 whole entry): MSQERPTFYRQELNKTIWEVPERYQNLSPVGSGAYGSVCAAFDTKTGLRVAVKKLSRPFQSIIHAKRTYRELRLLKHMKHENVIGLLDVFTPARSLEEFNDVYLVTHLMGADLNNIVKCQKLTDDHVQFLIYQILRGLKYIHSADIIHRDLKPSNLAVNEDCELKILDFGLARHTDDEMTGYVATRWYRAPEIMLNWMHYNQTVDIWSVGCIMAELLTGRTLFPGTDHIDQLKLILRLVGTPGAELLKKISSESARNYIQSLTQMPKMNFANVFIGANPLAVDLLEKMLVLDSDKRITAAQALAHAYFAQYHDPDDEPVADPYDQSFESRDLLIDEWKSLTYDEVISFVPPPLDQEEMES
Chain of p38β (Q15759 whole entry): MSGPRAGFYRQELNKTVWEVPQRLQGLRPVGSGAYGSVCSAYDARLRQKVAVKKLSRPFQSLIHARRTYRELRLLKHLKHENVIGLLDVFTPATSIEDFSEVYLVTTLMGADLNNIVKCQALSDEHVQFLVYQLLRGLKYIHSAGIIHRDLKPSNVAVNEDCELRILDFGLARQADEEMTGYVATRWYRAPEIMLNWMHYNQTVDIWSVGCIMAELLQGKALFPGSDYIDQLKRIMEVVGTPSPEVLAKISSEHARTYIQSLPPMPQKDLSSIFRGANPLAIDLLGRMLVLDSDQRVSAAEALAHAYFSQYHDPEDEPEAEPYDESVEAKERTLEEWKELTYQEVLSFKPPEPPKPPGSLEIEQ

B1: 纳米抗体Nb13-6 (nanobody against protein kinase p38δ), C-terminal FLAG tag (VHH)
VHH: QVQLVESGGALVQPGGSLRLSCAASGLEPSMFSLRWYRQAPGKEREWVCGISKWFDDMSYEDSVKGRFTCSRDDARNTVYLQLNSLKPEDTAVYYCASLRPTFLPGLMRTRYWGQGTQVTVSS
notes: Expressed from pET22b in E. coli BL21(DE3); Used mostly as periplasmic extract; Other vector-derived residues are not described; also called 针对蛋白激酶p38δ的纳米抗体; not shown: FLAG tag fused at the C-terminus
B1: no binding [1]; no binding (p38α); no binding (p38β). It also gave a Kd [2] of 499 nM.
